Among the data in article PMC5686756, “IKKγ-Mimetic Peptides Block the Resistance to Apoptosis Associated with Kaposi's Sarcoma-Associated Herpesvirus Infection” (Journal of Virology, 2017) are shift in melting temperature values, retold here.

The experiment addresses ks-vFLIP (purified, thermofluor assay) (Kaposi's sarcoma-associated herpesvirus (KSHV)) (UniProt Q76RF1). The experiment in a line: thermofluor (thermal shift); 30 μM ks-vFLIP combined with IKKγ or mimetic peptides, SYPRO orange 1:1,000, 96-well plate, thermal denaturation. A general note: In DSF a fluorescence change marks the thermal transition of the protein.

Sequence of IKKγ fragment encompassing residues 150 to 272 (Q9Y6K9 150-272): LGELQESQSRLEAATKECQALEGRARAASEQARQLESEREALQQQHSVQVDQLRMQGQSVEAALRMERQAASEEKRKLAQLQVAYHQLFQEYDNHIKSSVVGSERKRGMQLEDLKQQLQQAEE
Sequence of unmodified IKKγ 30-mer peptide (residues 224 to 253) (Q9Y6K9 224-253): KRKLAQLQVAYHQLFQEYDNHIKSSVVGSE

Consider “IKKγ fragment encompassing residues 150 to 272 (from UniProt Q9Y6K9 150-272) (domain or fragment)”, for which the shift in melting temperature at 30 μM is 8 °C.
On to “unmodified IKKγ 30-mer peptide (residues 224 to 253) (from UniProt Q9Y6K9 224-253)”, for which the shift in melting temperature at 100 μM turned out to be 4 °C.
For the substance “unmodified IKKγ 21-mer peptide (residues 226 to 248) (from UniProt Q9Y6K9 226-248)”, the shift in melting temperature at 100 μM was found to be 4 °C.
